{"source": "patent US10765706B2", "about": "“Method of stem cell delivery into the brain during chronic disease using blood brain barrier permeabilizers” (University of South Florida, priority 2015, dated 2020)", "origin": "cited, not measured here", "test_system": "stroke patients", "conditions": "acute stroke patients"}
{"molecule": "t-PA: thrombolytic agent, tissue plasminogen activator (protein, UniProt P00750 36-562, looked up) Tissue-type plasminogen …: SYQVICRDEKTQMIYQQHQSWLRPVLRSNRVEYCWCNSGRAQCHSVPVKSCSEPRCFNGGTCQQALYFSDFVCQCPEGFAGKCCEIDTRATCYEDQGISYRGTWSTAESGAECTNWNSSALAQKPYSGRRPDAIRLGLGNHNYCRNPDRDSKPWCYVFKAGKYSSEFCSTPACSEGNSDCYFGNGSAYRGTHSLTESGASCLPWNSMILIGKVYTAQNPSAQALGLGKHNYCRNPDGDAKPWCHVLKNRRLTWEYCDVPSCSTCGLRQYSQPQFRIKGGLFADIASHPWQAAIFAKHRRSPGERFLCGGILISSCWILSAAHCFQERFPPHHLTVILGRTYRVVPGEEEQKFEVEKYIVHKEFDDDTYDNDIALLQLKSDSSRCAQESSVVRTVCLPPADLQLPDWTECELSGYGKHEALSPFYSERLKEAHVRLYPSSRCTSQHLLNRTVTDNMLCAGDTRSGGPQANLHDACQGDSGGPLVCLNDGRMTLVGIISWGLGCGQKDVPGVYTKVTNYLDWIRDNMRP", "values": [{"measurement": "fraction of patients receiving the therapy with enhanced recovery", "value": "⅓"}]}
